{
  "source": "paper PMC4674489",
  "molecular_target": "GST-PTN(60-110) fusion protein (human)",
  "sequence (P21246 60-110)": "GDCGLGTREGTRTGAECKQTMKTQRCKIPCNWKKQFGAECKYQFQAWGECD",
  "experiment": "pull-down",
  "data": [
    {"substance": "Neuropilin-1 (NRP-1), endogenous (from UniProt O14786 22-923) (receptor)", "values": [
      {"measurement": "NRP-1 pulled down, percent of that with GST-PTN(1-136)", "result": 45, "unit": "%"}
    ]}
  ]
}
